How the values were obtained:
[1] = biological target: GST-EPLIN-α (recombinant full-length EPLIN-α GST-fusion protein) (UniProt Q9UHB6); test: pull-down
[2] = biological target: F-actin (UniProt P68135); test: co-sedimentation

Sequence of his-EPLIN-α (Q9UHB6 161-759): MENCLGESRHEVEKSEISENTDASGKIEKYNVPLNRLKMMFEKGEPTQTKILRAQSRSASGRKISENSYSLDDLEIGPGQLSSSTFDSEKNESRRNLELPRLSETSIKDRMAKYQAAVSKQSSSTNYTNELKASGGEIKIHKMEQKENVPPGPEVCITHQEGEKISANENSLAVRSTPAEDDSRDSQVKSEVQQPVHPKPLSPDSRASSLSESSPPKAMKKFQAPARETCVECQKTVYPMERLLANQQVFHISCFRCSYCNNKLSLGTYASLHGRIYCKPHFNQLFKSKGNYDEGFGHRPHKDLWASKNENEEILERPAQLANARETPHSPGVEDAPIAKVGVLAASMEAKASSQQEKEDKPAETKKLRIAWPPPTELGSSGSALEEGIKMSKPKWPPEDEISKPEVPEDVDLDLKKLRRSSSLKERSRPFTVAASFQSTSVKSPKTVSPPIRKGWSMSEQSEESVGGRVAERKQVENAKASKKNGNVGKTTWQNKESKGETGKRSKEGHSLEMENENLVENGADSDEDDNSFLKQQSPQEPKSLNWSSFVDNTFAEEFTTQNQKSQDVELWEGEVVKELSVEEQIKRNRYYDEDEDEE
Sequence of GST-EPLIN-α (recombinant full-length EPLIN-α GST-fusion protein) (Q9UHB6 161-759): as above

| Kd [2] | stoichiometry N (actin molecules per his-EPLIN-α) [2] | Substance | percent of actin monomers pelleted [1] |
| --- | --- | --- | --- |
| – | – | G-actin (from UniProt P68135 1-377) (natural protein) | 10% |
| 100 nM | 2 | his-EPLIN-α (from UniProt Q9UHB6-2 1-599) (natural protein) | – |

— paper PMC2172667
